# B1: Translationally-controlled tumor protein homolog (Drosophila melanogaster (Fruit fly)), Q9VGS2 (parent)
# chain: MKIYKDIITGDEMFADTYKMKLVDDVIYEVYGKLITRQGDDIKLEGANASAEEADEGTDITSESGVDVVLNHRLTECFAFGDKKSYTLYLKDYMKKVLAKLEEKSPDQVDIFKTNMNKAMKDILGRFKELQFFTGESMDCDGMVALVEYREINGDSVPVLMFFKHGLEEEKC
# partner: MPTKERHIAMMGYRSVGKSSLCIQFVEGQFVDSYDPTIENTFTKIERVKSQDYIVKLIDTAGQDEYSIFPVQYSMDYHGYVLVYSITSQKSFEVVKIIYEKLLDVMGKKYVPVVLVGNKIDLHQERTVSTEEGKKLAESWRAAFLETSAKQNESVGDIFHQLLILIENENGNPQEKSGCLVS
# Variants of: B1
# Settings: with rheb_drome Rheb
row,effect of a mutation on the interaction,Variant
1,decreasing interaction strength,MKIYKDIITGDVMFADTYKMKLVDDVIYEVYGKLITRQGDDIKLEGANASAEEADEGTDITSESGVDVVLNHRLTECFAFGDKKSYTLYLKDYMKKVLAKLEEKSPDQVDIFKTNMNKAMKDILGRFKELQFFTGESMDCDGMVALVEYREINGDSVPVLMFFKHGLEEEKC

# Variants of: B1
# Settings: with rheb_drome Rheb
# Remark: another data set of the same source
row,effect of a mutation on the interaction,Variant
1,disrupting interaction strength,MKIYKDIITGDVMFADTYKMKLVDDVIYEVYGKLITRQGDDIKLEGANASAEEADEGTDITSESGVDVVLNHRLTECFAFGDKKSYTLYLKDYMKKVLAKLEEKSPDQVDIFKTNMNKAMKDILGRFKELQFFTGESMDCDGMVALVEYREINGDSVPVLMFFKHGLEEEKC

# — IntAct's records for PubMed 17301792
